Tests used:
[1] = target: SARS-CoV-2 full length Spike protein, wild type (SARS-CoV-2, UniProt P0DTC2 14-1208)
MERS full length Spike = target: T1, MERS full length Spike (MERS-CoV, UniProt K9N5Q8 18-1291)
T1 sequence: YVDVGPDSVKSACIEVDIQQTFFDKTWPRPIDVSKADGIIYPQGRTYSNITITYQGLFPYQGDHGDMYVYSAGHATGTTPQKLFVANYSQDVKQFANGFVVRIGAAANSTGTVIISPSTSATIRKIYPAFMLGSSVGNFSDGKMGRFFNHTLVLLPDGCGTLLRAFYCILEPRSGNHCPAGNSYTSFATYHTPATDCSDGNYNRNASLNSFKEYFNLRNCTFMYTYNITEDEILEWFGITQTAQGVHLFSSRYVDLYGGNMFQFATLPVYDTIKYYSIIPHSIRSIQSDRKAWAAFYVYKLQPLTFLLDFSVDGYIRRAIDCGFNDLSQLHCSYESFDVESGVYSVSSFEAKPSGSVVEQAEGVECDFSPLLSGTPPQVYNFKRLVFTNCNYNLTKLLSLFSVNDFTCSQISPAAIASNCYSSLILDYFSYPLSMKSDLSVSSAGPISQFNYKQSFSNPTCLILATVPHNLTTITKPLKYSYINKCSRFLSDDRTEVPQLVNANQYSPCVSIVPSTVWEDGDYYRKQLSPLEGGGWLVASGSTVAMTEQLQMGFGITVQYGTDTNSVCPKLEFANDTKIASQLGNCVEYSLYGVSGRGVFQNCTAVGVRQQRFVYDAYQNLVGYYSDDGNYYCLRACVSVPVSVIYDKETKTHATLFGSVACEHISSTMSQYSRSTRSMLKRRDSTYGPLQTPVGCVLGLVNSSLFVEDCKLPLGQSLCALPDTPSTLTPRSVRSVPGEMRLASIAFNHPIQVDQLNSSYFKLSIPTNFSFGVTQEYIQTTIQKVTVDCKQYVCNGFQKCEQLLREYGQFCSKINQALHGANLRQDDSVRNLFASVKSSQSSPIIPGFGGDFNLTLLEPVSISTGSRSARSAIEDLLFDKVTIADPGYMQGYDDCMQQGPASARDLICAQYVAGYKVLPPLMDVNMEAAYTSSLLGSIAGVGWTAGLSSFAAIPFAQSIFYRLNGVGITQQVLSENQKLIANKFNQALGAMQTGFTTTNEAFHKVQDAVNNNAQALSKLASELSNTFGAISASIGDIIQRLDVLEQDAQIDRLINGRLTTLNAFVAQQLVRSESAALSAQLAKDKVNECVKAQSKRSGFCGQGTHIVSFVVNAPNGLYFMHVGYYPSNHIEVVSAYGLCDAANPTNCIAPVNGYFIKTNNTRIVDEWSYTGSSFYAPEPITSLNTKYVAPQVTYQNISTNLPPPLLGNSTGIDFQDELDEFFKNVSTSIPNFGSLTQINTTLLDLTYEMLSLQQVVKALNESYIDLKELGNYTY

HKU1 full length Spike = target: T2, HKU1 full length Spike (human coronavirus HKU1, UniProt Q5MQD0 13-1276)
T2 sequence: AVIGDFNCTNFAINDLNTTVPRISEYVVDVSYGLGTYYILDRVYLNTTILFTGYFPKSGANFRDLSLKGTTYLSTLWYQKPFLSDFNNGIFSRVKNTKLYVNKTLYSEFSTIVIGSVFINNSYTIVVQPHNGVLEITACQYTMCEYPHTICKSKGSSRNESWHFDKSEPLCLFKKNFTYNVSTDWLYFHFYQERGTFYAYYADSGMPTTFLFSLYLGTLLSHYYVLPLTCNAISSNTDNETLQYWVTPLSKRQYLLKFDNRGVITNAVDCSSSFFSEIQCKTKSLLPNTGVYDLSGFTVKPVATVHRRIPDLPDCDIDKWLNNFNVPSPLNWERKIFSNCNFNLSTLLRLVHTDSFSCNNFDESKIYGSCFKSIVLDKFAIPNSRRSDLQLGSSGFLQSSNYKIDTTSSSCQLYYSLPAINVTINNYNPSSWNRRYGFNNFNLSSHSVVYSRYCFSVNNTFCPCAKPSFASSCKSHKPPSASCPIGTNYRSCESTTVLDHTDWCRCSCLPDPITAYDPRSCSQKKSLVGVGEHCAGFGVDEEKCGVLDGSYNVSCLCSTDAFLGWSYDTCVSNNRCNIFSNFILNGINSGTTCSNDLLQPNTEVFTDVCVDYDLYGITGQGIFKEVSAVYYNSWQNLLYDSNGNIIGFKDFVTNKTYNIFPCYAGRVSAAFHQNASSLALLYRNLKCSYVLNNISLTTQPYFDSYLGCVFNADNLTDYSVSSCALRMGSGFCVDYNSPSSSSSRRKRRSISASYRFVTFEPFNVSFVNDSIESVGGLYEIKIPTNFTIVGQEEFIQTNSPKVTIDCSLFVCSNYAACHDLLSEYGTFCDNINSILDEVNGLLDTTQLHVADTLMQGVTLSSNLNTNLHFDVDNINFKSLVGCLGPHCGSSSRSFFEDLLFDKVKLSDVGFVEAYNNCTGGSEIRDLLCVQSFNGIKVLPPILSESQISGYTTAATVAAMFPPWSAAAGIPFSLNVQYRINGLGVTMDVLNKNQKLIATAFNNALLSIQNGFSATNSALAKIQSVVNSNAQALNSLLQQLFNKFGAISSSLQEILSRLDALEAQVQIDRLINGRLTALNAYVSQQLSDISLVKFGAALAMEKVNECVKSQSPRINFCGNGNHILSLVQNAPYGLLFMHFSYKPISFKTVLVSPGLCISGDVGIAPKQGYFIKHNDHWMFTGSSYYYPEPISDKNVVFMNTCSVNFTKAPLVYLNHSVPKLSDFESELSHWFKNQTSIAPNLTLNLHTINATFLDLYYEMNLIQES

[2] = target: SARS-CoV full length Spike (SARS-CoV, UniProt P59594 14-1190)
[3] = target: SARS-CoV-2 full length Spike protein, wild type, expressed on CHO cells (SARS-CoV-2, UniProt P0DTC2 14-1273)

B1: antibody 333 (antibody, V domains shown)
VH: QVHLVESGGGVVLPGRSLRLSCSASQFIFSNYDMHWVRQSPGMGLEWVAGISSDGSDKYYIDSVRGRFTISRDNAKNTLFLQMNSLTTEDTAVYSCAKGGGKFGQYWGRGTLVTVSS
VL: AIQMTQSPSSLSASVGDRVTITCRASQVIRNDLAWFQQKPGEAPNLLVYSASNLQSGVPSRFSGSGSGTDFTLTISSLQPEDFATYYCLQDYSYPYTFGQGTKLDMK
bead binding signal (fold over isotype) [1]: 1.08 fold over isotype

B2: antibody 340 (antibody, V domains shown)
VH: QVQLVQSGAEVKKPGASVKVSCKASGYTFTSYDINWVRQATGQGLEWMGWMNPNSGNTGYAQKFQGRVTMTRNTSISTAYMELSSLRSEDTAVYYCARGRYCTGGVCWGDWYFDLWGRGTLVTVSS
VL: QSVLTQPPSVSGAPGQRVTISCTGSSSNIGAGYDVHWYQQLPGTAPKFLIYGNSNRPSGVPDRFSGSKSGTSASLAITGLQAEDEADYYCQSYDSSLSGPVFGGGTKLTVL
bead binding signal (fold over isotype) [1]: 547 fold over isotype

B3: antibody 343 (antibody, V domains shown)
VH: QVQLVESGGDVVQPGTSLRLSCAASGFTFNNYGFHWVRQAPGKGLEWVALISSDGASTHYADSVKGRFTISRDSSVNTLYLQMNSLSLEDTAVYYCATGHCGTTCYYFDYWGQGTLVSVSS
VL: DIQVTQSPSYLSASVGDRVTITCRASQTISTFLQWYQQKVGKAPKLLIYAASTLQSGVPSRFSGSGSGTDFSLTISSLQPEDFATYYCQQSYSAPLSFGGGTKVEIK
bead binding signal (fold over isotype) [1]: 1.2 fold over isotype

B4: antibody 344 (antibody, V domains shown)
VH: QVQLVESGGGVVQPGRSLRLSCAASGFTFSSYAMHWVRQAPGKGLEWMAVISYDGSNKYYADSVKGRFTISRDNSKNTLYLQMNSLRAEDTAVYFCAKGYSGSYYEPFDYWGQGTLVTVSS
VL: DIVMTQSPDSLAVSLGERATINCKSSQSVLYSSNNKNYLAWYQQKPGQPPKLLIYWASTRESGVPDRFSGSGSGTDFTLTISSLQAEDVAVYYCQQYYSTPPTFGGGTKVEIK
bead binding signal (fold over isotype) [1]: 404 fold over isotype

B5: antibody 345 (antibody, V domains shown)
VH: QVQLQESGPGLVKPSQTLSLTCTVSGGSISSGDYYWSWIRQPPGKGLEWIGYIYYSGSTYYNPSLKSRVTISVDTSKNQFSLKLSSVTAADTAVYYCARVGMVDNWNFEGNWFDPWGQGTLVTVSS
VL: QSALTQPRSVSGSPGQSVTISCTGTSSDVGGYNYVSWYQQHPGKAPKLMIYDVSKRPSGVPDRFSGSKSGNTASLTISGLQAEDEADYYCCSYAGSVVFGGGTKLTVL
bead binding signal (fold over isotype) [1]: 562 fold over isotype

B6: antibody 348 (antibody, V domains shown)
VH: QVQLVQSGSELKKPGASVKVSCKASGYTFTSYAMNWVRQAPGQGLEWMGWINTNTGNPTYAQGFTGRFVFSLDTSVSTAYLQISSLKAEDTAVYYCARDHELPNTSSWFGHFEYWGQGTLVTVSS
VL: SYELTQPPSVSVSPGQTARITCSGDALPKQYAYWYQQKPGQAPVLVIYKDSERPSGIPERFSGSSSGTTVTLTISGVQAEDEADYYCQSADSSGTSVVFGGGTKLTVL
bead binding signal (fold over isotype) [1]: 869 fold over isotype

B7: antibody 363 (antibody, V domains shown)
VH: EVQLLESGGGLVQPGGSLRLSCAASGFTFSTYAMSWVRQAPGKGLEWVSAISGSGGSTYYADSVKGRFTISRDNSKNTLYLQMNSLRAEDTAVYYCASGYSPDYWGQGTLVTVSS
VL: not shown
bead binding signal (fold over isotype) [1]: 1030 fold over isotype

B8: mAb 894 (antibody, V domains shown)
VH: QVQLVQSGAEVKKPGASVKVSCKVSGYTLPELSIHWVRQAPGKGLEWMGGFDPENAETIYTQKFQGRLTMTEDTSTDTAYMELSSLRSEDTAMYYCATSFVLMPAALGDYSYYYGMDVWGQGTTVTVSS
VL: not shown
median fluorescence intensity, fold over isotype control (MERS full length Spike): 1.06 fold over isotype | median fluorescence intensity, fold over isotype control (HKU1 full length Spike): 1.18 fold over isotype | median fluorescence intensity, fold over isotype control [2]: 1.1 fold over isotype

B9: anti-SARS-CoV-2 antibody 936 (antibody, V domains shown)
VH: EVQLVESGGGLVQPGRSLTLSCAGSGFTFDDYAMHWVRQAPGKGLEWVSGISWNSGSIGYADSVKGRFTISRDNAKNSLYLQMNSLRAEDTALYYCAKDVSYDSSGYYNNAFDIWGQGTMVTVSS
VL: DIQLTQSPSFLSASVGDRVTITCRASQGISSYLAWYQQKPGKAPKLLIYAASTLQSGVPSRFSGSGSGTEFTLTISSLQPEDFATYYCQQLYSYPVTFGQGTRLEIKR
median fluorescence intensity, fold over isotype control [3]: 33.1 fold over isotype

B10: anti-SARS-CoV-2 antibody 1036 (antibody, V domains shown)
VH: QVQLVQSGAEVKKPGSSVKVSCKASGGTLSSYTISWVRQAPGQGLEWMGRIIPILGIADYAQKFQGRVTITADKSTTTAYMDLSSLGSEDTALYYCASAPKDWSSGFDYYYGMDVWGQGTMVTVSS
VL: DIVMTQTPLSLSVTPGQPASISCKSSQSLLNSDGKTYLYWYLQKAGQPPQLLIYEVSNRFSGVPERFSGSGSGTDFTLKISRVEAEDVGVYYCMQSVQLPPYTFGQGTKLEITR
median fluorescence intensity, fold over isotype control [3]: 10.2 fold over isotype

B11: anti-SARS-CoV-2 antibody 1135 (antibody, V domains shown)
VH: EVQLVESGGGLVQPGRSLRLSCAASGLTFEDYAMHWVRQVPGKGLEWVSGISWNSGTIGYADSVKGRFIISRDNAKNSLYLQMRSLRAEDTALYYCAKDVGFGELLYYAFDIWGQGTMVTVSS
VL: QSALTQPASVSGSPGQSITISCTGTSSDVGGYNYVSWYQQHPGKAPKLMIYDVSNRPSGVSNRFSGSKSGNTASLTISGLQAEDEADYYCSSYTSSSTVVFGGGTKLTVLG
median fluorescence intensity, fold over isotype control [3]: 10.9 fold over isotype

B12: anti-SARS-CoV-2 antibody 1139 (antibody, V domains shown)
VH: QVQLVQSGAEVKKPGASVKVSCKASGYTFSSYEINWVRQATGQGLEWMGRMTLNSGNTGYAQNFQGRVTMTRDTSISTAYMELSGLRSEDTAVYYCARMRSGWPTHGRPDDYWGQGTLVTVSS
VL: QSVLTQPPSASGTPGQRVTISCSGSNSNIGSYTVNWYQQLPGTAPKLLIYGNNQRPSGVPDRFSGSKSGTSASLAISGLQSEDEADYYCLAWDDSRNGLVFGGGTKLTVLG
median fluorescence intensity, fold over isotype control [3]: 20.3 fold over isotype

B13: anti-SARS-CoV-2 antibody 1149 (antibody, V domains shown)
VH: QVQLVQSGAEVKKPGASVKVSCKASGYTFASYDINWVRQATGQGPEWMGWMIPNIGNTGYAQKFQGRVTMTRNTSISTAYMELSSLTSEDTAVYYCARVSRLFNDFGLRHEAPVDFWGQGTRVTVSS
VL: QSVLTQPPSVSGAPGQRVTISCTGSSSNIGAGYDVHWYQQLPGTAPKLLIYGYSSRPSGVPDRFSGSKSGTSASLAITGLQAEDEADYYCQSYDSSLSVLFGGGTKLTVLG
median fluorescence intensity, fold over isotype control [3]: 19.2 fold over isotype
